In this experiment the target is T1, 6xHis-SUMO-Gin4 (S. cerevisiae, UniProt Q12263 1-1142).
T1 sequence (looked up): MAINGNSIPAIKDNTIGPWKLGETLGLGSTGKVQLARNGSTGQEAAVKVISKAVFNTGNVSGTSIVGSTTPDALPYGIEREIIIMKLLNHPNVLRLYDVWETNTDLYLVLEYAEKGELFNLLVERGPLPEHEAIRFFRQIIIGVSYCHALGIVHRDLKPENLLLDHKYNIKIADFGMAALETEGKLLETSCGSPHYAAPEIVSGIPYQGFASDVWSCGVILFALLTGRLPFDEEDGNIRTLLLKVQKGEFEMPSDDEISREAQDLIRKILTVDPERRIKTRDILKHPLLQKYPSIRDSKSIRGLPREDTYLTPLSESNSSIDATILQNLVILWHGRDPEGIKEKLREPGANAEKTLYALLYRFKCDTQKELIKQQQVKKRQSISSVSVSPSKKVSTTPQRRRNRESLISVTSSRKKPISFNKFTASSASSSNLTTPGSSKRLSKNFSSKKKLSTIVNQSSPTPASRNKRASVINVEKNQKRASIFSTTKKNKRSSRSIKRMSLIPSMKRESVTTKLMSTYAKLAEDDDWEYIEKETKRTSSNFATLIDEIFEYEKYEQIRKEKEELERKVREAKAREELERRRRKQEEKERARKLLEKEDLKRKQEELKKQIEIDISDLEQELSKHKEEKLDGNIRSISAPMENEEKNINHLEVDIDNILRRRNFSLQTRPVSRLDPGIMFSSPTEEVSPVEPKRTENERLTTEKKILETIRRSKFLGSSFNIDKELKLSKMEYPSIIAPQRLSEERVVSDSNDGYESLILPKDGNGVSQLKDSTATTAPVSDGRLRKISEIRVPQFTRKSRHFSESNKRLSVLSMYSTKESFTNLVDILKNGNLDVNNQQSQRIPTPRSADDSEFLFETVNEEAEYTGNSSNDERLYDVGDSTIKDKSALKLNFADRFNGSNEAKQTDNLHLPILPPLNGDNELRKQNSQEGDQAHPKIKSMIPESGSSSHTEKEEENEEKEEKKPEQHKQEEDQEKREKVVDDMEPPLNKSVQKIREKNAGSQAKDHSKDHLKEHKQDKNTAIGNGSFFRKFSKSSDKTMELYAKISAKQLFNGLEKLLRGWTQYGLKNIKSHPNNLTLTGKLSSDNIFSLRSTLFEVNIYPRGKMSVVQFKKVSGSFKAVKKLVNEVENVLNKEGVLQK
Put plainly: pull-down.

B1: GST-Elm1^WT (enzyme, S. cerevisiae, UniProt P32801 1-640, looked up)
chain: MSPRQLIPTLIPEWAPLSQQSCIREDELDSPPITPTSQTSSFGSSFSQQKPTYSTIIGENIHTILDEIRPYVKKITVSDQDKKTINQYTLGVSAGSGQFGYVRKAYSSTLGKVVAVKIIPKKPWNAQQYSVNQVMRQIQLWKSKGKITTNMSGNEAMRLMNIEKCRWEIFAASRLRNNVHIVRLIECLDSPFSESIWIVTNWCSLGELQWKRDDDEDILPQWKKIVISNCSVSTFAKKILEDMTKGLEYLHSQGCIHRDIKPSNILLDEEEKVAKLSDFGSCIFTPQSLPFSDANFEDCFQRELNKIVGTPAFIAPELCHLGNSKRDFVTDGFKLDIWSLGVTLYCLLYNELPFFGENEFETYHKIIEVSLSSKINGNTLNDLVIKRLLEKDVTLRISIQDLVKVLSRDQPIDSRNHSQISSSSVNPVRNEGPVRRFFGRLLTKKGKKKTSGKGKDKVLVSATSKVTPSIHIDEEPDKECFSTTVLRSSPDSSDYCSSLGEEAIQVTDFLDTFCRSNESLPNLTVNNDKQNSDMKTDRSESSSHSSLKIPTPIKAMIRLKSSPKENGNRTHINCSQDKPSSPLMDRTVGKRTVNNSGARKLAHSSNILNFKAYINSEDSDIRETVEDVKTYLNFADNGQI
Turning to B1, the binding result was “binds”.
